In patent US20250051467A1 (JIANGSU HENGRUI PHARMACEUTICALS, published 2025):
Where a chain is given by its changes, count along the chain named. Numbers in names are those of the source. Blank lines part the entries; values can stand above or below the binder they belong to.

Experiments:
mouse FAP on CHOK1 cells [1] = molecular target: T1, mouse FAP on CHOK1 cells (mouse, UniProt P97321 1-761); experiment: FACS, CHOK1 cells stably expressing mouse FAP
T1 construct: whole, on cells; also called cell surface mouse FAP
T1 sequence (P97321 whole entry): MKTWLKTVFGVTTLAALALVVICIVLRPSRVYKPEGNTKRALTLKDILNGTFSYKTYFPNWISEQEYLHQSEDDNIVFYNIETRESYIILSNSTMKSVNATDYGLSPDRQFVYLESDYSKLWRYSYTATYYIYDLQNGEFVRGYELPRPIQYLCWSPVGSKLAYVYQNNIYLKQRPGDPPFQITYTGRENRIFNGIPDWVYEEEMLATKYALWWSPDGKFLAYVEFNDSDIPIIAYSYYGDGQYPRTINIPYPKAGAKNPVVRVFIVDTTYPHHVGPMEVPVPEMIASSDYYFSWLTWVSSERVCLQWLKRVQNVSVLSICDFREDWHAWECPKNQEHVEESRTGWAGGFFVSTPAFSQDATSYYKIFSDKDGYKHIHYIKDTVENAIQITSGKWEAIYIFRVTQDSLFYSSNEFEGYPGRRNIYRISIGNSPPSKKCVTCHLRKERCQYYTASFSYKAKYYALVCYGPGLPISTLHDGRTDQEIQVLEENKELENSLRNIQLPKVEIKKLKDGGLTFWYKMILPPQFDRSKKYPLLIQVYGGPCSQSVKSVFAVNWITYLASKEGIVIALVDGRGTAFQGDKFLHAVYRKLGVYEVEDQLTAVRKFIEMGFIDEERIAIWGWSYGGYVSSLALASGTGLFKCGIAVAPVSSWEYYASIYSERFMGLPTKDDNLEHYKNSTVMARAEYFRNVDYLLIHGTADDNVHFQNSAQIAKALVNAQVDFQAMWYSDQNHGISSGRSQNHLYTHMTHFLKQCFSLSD
Protocol: (§1) In this experiment, the binding of the anti-FAP/CD40 bispecific antibodies to stably transfected strains of CHOK1 cells that highly express human FAP, cynomolgus monkey FAP and mouse FAP was measured by FACS.

[2] = molecular target: T2, cynomolgus monkey CD40 on HEK293 cells (cynomolgus monkey, UniProt G7PG38 21-278); experiment: FACS, HEK293 cells transiently expressing cynomolgus monkey CD40
T2 construct: whole, on cells
Protocol: (§2) The binding of the bispecific antibodies to cell surface CD40 was measured by FACS, including HEK-Blue™CD40L cells highly expressing human CD40 (Invivogen, Cat #hkb-cd40), and HEK293 cells that were transiently transfected with cynomolgus monkey CD40 plasmids (Sino Biological, cat #CG90970-UT) and thus made to highly express cynomolgus monkey CD40. […] See FIGS. 9A, 9B and 11 and Table 21 for details.

[3] = molecular target: T3, human CD40 on cells (Raji cells; HEK-Blue CD40L cells; human dendritic cells) (human, UniProt P25942 21-277); experiment: FACS, HEK-Blue CD40L cells expressing human CD40
T3 construct: whole, on cells; One entry for untagged full-length human CD40 on cells; also called Raji cell surface human CD40; human cell surface CD40 antigen
T3 sequence (P25942 21-277): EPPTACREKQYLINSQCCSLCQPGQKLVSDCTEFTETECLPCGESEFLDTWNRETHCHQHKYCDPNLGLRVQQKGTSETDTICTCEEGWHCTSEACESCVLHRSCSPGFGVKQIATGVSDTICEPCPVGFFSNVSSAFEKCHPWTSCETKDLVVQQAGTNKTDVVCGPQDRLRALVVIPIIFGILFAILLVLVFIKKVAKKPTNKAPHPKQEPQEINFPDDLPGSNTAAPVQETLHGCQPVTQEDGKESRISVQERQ
Protocol: as §2

human FAP on CHO cells [4] = molecular target: T4, human FAP on CHO cells (human, UniProt Q12884 1-760); experiment: FACS, CHOK1 cells stably expressing human FAP
T4 construct: whole, on cells; also called CHO cell line overexpressing human FAP; CHOK1/FAP
Protocol: as §1

[5] = molecular target: T5, cynomolgus monkey FAP on CHOK1 cells (cynomolgus monkey); experiment: FACS, CHOK1 cells stably expressing cynomolgus monkey FAP
T5 construct: whole, on cells
Protocol: as §1

[6] = molecular target: T6, human FAP protein (Acro, FAP-H5244) (human, UniProt Q12884 26-760); experiment: SPR (Biacore 8K), antibody captured by anti-human IgG Fc, human FAP analyte
T6 construct: Bought protein
Protocol: (§3) The affinities of the anti-FAP/CD40 bispecific antibodies for their antigens, the human FAP protein (Acro, FAP-H5244) and the human CD40 protein (Acro, CD0-H5228), were measured by SPR (GE Healthcare; Biacore 8K). A CM5 sensor chip was used, and HBS-EP+buffer solution (10 mM HEPES, 150 mM NaCl, 3 mM EDTA, 0.05% surfactant P20) was used as the mobile phase. An anti-human IgG (Fc) antibody was immobilized by amino coupling. The test antibodies were separately diluted in HBS-EP+buffer solution as ligands and captured by the anti-human IgG (Fc) antibody on chip channels. Antigenic proteins of different species were used as analytes.

h-CD40-His = molecular target: T7, h-CD40-His (human, UniProt P25942 21-193); experiment: SPR (Biacore 8K), antibody captured by anti-human IgG Fc, human CD40 analyte
T7 construct: range 21-193; Bought His-tagged recombinant protein; also called human CD40 protein (Acro, CD0-H5228); human CD40
T7 sequence (P25942 21-193 limits assumed): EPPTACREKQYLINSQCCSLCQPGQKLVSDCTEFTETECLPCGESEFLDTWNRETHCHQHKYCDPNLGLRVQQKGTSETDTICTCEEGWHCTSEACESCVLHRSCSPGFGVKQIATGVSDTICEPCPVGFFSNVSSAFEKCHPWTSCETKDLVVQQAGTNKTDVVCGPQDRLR
Protocol: as §3

[7] = molecular target: T8, human CD40 with C-terminal Flag tag on HEK293 cells (human, UniProt P25942 21-277); experiment: FACS, HEK293 cells transiently expressing human CD40
T8 construct: whole, on cells; also called HEK293 cells highly expressing CD40; cell strain highly expressing human CD40
T8 sequence (P25942 other isoform, or with tags, fused parts or gaps): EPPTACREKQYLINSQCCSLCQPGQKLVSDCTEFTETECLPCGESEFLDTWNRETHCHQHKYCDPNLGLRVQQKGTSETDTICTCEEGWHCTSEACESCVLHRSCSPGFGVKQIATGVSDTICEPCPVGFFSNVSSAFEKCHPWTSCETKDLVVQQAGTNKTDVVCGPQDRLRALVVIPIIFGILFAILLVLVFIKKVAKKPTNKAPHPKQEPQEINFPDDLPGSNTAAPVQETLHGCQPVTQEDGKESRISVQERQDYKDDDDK
Protocol: The ability of the humanized antibodies to bind to cells highly expressing the human antigen protein CD40 was measured by FACS. HEK293 cells were transiently transfected with CD40 plasmids (CD40 cDNA ORF Clone, Human, C-[…] (Flag®) Tag; Sino Biological; HG10774-CF), yielding HEK293 cells highly expressing CD40. The resulting cells were resuspended in the flow cytometry staining buffer ([…]), and the test antibodies that had been serially diluted to different concentrations were added. After 1 h of incubation on ice, the cells were washed with PBS and centrifuged at 400 g for 5 min. A goat anti-human Fc antibody labeled with the fluorescent group Alexa Fluor 647 was added as a secondary antibody, and the cells were stained in an ice bath for 1 h. After two washes with PBS, the fluorescent signals on the cell surface were detected by FACS. The humanized antibodies of the present disclosure all have relatively high affinities for the cell strain highly expressing CD40.

[8] = molecular target: T3, human CD40 on cells (Raji cells; …); experiment: cell-based or functional assay
h-FAP-His = molecular target: T9, h-FAP-His (human, UniProt Q12884 26-760); experiment: SPR, antibody captured by anti-human IgG Fc, h-FAP-His analyte
T9 construct: range 26-760; Bought recombinant protein with a His tag; also called human FAP-His protein; FAP recombinant protein with a His tag
Protocol: A CM5 sensor chip was used, and HBS-EP+buffer solution (10 mM HEPES, 150 mM NaCl, 3 mM EDTA, 0.05% surfactant P20) was used as the mobile phase. An anti-human IgG (Fc) antibody was made into a […] solution in a 10 mM sodium acetate buffer solution (pH 5.0) and immobilized by amino coupling. The test antibodies were diluted in HBS-EP+buffer solution and captured by the anti-human IgG (Fc) antibody on chip channels. h-FAP-His was dissolved in HBS-EP+buffer solution to prepare an analyte, and the analyte was serially diluted 2-fold. The diluted antibodies were passed through the experimental and reference channels at a flow rate of […], with 1 min of binding and 15 min of disassociation. 10 mM Glycine pH 1.5 was passed as a regeneration buffer solution for 30 s at a flow rate of […]. Data were analyzed. […] However, the binding affinities of the other anti-FAP antibodies obtained by screening at the same time in the present disclosure, such as Ab2, Ab4 and Ab5 (sequences not shown), for the antigen are lower than that of 28H1.

mouse FAP on CHOK1 cells [9] = molecular target: T1, mouse FAP on CHOK1 cells; experiment: FACS, percent of marked cells overexpressing mouse FAP, anti-hIgG Alexa Fluor-647 secondary antibody
Protocol: (§4) A FACS assay was used to measure the binding properties of anti-FAP antibodies on cells. The assay comprises the following steps: A CHO cell line overexpressing human FAP was constructed and plated (1E5/well). The test antibodies were added at 100 μL/well. The highest concentration was 100 nM. A 5-fold dilution was performed, yielding 8 concentrations in total. The plate was incubated at 4° C. for 1 h. Anti-hIgG Alexa Fluor-647 was added as a secondary antibody in the ratio of 1:500. The plate was incubated at 4° C. for 30 min, and a FACS assay was performed. Antibodies that bind to FAP can mark cells. The relation between the percentage of the marked cells that over-express human FAP among all cells and the antibody concentration is shown in FIG. 1. The relation between the percentage of the marked cells that over-express mouse FAP among all cells and the antibody concentration is shown in FIG. 2.

human FAP on CHO cells [10] = molecular target: T4, human FAP on CHO cells; experiment: FACS, CHO cells overexpressing human FAP
Protocol: as §4

EC50 [7]: 1.74 nM
Emax (MFI) [7]: 16900 MFI
FcγRIIb-mediated activation of HEK-Blue CD40L cells, EC50 [8]: 0.011 nM
FcγRIIb-mediated activation of HEK-Blue CD40L cells, Emax (relative fluorescence intensity) [8]: 19.1 relative fluorescence intensity
B5: A12V3-Fc (Fc fusion)
chain: EVQVVESGGGLVQPGGSLRLSCAASGFTFSNYGMKWVRQAPGKGLEWVSTILSQGGSTYYADSVKGRFTISRDNSKNTLYLQMNSLRAEDTAVYYCLRVDWSDYSPRGQGTQVTVSSEPKSADKTHTCPPCPAPELLGGPSVFLFPPKPKDTLMISRTPEVTCVVVDVEHEDPEVKFNWYVDGVEVHNAKTKPREEQYNSTYRVVSVLTVLHQDWLNGKEYKCKVSSKAFPAPIEKTISKAKGQPREPQVYTLPPSRDELTKNQVSLTCLVKGFYPSDIAVEWESNGQPENNYKTTPPVLDSDGSFFLYSKLTVDKSRWQQGNVFSCSVMHEALHNHYTQKSLSLSPGK

EC50 [7]: 2.13 nM
Emax (MFI) [7]: 16600 MFI
FcγRIIb-mediated activation of HEK-Blue CD40L cells, EC50 [8]: 0.009 nM
FcγRIIb-mediated activation of HEK-Blue CD40L cells, Emax (relative fluorescence intensity) [8]: 21.6 relative fluorescence intensity
B6: A12V1-Fc (Fc fusion)
chain: B5 chain with V4L, S75A, T78S, V93L, L97A, Q112M

EC50 [7]: 1.07 nM
Emax (MFI) [7]: 12800 MFI
FcγRIIb-mediated activation of HEK-Blue CD40L cells, EC50 [8]: 0.005 nM
FcγRIIb-mediated activation of HEK-Blue CD40L cells, Emax (relative fluorescence intensity) [8]: 20 relative fluorescence intensity
B8: A297V2-Fc (Fc fusion)
chain: QVQLVESGGGVVQPGGSLRLSCAASGFTFSRYGMKWVRQAPGKGLEWVSTINSHGDTTYYADSVKGRFTISRDNAKNSLYLQMNSLRAEDTALYYCLRIDYSDYSSRGQGTMVTVSSEPKSADKTHTCPPCPAPELLGGPSVFLFPPKPKDTLMISRTPEVTCVVVDVEHEDPEVKFNWYVDGVEVHNAKTKPREEQYNSTYRVVSVLTVLHQDWLNGKEYKCKVSSKAFPAPIEKTISKAKGQPREPQVYTLPPSRDELTKNQVSLTCLVKGFYPSDIAVEWESNGQPENNYKTTPPVLDSDGSFFLYSKLTVDKSRWQQGNVFSCSVMHEALHNHYTQKSLSLSPGK

Kd (h-FAP-His): 1.31 nM
Ratio of KD of 28H1 to KD of test antibody (h-FAP-His): 1
Ratio of Kd of 28H1 to Kd of test antibody (h-FAP-His): 1
koff (h-FAP-His): 0.000255 s⁻¹
kon (h-FAP-His): 195000 M⁻¹ s⁻¹
EC50 (read off the curve) (mouse FAP on CHOK1 cells [9]): ~1 ng/mL
EC50 (human FAP on CHO cells [10]): 0.784 ng/mL
B10: 28H1 (antibody, V domains shown)
VH: EVQLLESGGGLVQPGGSLRLSCAASGFTFSSHAMSWVRQAPGKGLEWVSAIWASGEQYYADSVKGRFTISRDNSKNTLYLQMNSLRAEDTAVYYCAKGWLGNFDYWGQGTLVTVSS
VL: EIVLTQSPGTLSLSPGERATLSCRASQSVSRSYLAWYQQKPGQAPRLLIIGASTRATGIPDRFSGSGSGTDFTLTISRLEPEDFAVYYCQQGQVIPPTFGQGTKVEIK
notes: also called control anti-FAP antibody 28H1

Second part, the binder before the results:

B1: Ab10-A12V2-2 (bispecific antibody, human IgG1, kappa, L234A L235A)
heavy: not shown
light: DIQMTQSPSSVSASVGDRVTITCRASQGISSWLAWYQQKPGKAPKLLIYAASSLQSGVPSRFSGSGSGTDFTLTISSLQPEDFATYYCQQANSFPPAFGQGTKVEIKRTVAAPSVFIFPPSDEQLKSGTASVVCLLNNFYPREAKVQWKVDNALQSGNSQESVTEQDSKDSTYSLSSTLTLSKADYEKHKVYACEVTHQGLSSPVTKSFNRGEC
notes: divalent for CD40
EC50 (mouse FAP on CHOK1 cells [1]): 4.32 nM
Emax (MFI) (mouse FAP on CHOK1 cells [1]): 19500 MFI
EC50 [2]: 2.76 nM
Emax (MFI) [2]: 6610 MFI
EC50 [3]: 2.4 nM
Emax (MFI) [3]: 7570 MFI
EC50 (human FAP on CHO cells [4]): 2.72 nM
Emax (MFI) (human FAP on CHO cells [4]): 74000 MFI
EC50 [5]: 5.65 nM
Emax (MFI) [5]: 45000 MFI

B2: Ab10-A12V2-4 (bispecific antibody, human IgG1, kappa, L234A L235A)
heavy: not shown
light: B1 light
notes: Ab10 IgG1 (L234A/L235A) with two A12V2 VHHs in tandem on each heavy chain C-terminus; tetravalent for CD40
EC50 (mouse FAP on CHOK1 cells [1]): 4.43 nM
Emax (MFI) (mouse FAP on CHOK1 cells [1]): 19000 MFI
EC50 [2]: 3.24 nM
Emax (MFI) [2]: 6540 MFI
EC50 [3]: 0.79 nM
Emax (MFI) [3]: 4640 MFI
EC50 (human FAP on CHO cells [4]): 2.57 nM
Emax (MFI) (human FAP on CHO cells [4]): 64900 MFI
Kd [6]: 0.294 nM
koff [6]: 5.14e-05 s⁻¹
kon [6]: 175000 M⁻¹ s⁻¹
EC50 [5]: 2.26 nM
Emax (MFI) [5]: 43200 MFI
Kd (h-CD40-His): 29 nM
koff (h-CD40-His): 0.002 s⁻¹
kon (h-CD40-His): 69000 M⁻¹ s⁻¹

B3: A297V3-Fc (Fc fusion)
chain: B8 chain with Q1E, V11L, L93V, M112L
EC50 [7]: 1.25 nM
Emax (MFI) [7]: 12800 MFI
FcγRIIb-mediated activation of HEK-Blue CD40L cells, EC50 [8]: 0.006 nM
FcγRIIb-mediated activation of HEK-Blue CD40L cells, Emax (relative fluorescence intensity) [8]: 12.8 relative fluorescence intensity

B4: A297V4-Fc (Fc fusion)
chain: B8 chain with Q1E, V11L, T57S, A75S, S78T, L93V, R98K, M112L
EC50 [7]: 2.7 nM
Emax (MFI) [7]: 8260 MFI
FcγRIIb-mediated activation of HEK-Blue CD40L cells, EC50 [8]: 0.038 nM
FcγRIIb-mediated activation of HEK-Blue CD40L cells, Emax (relative fluorescence intensity) [8]: 13.3 relative fluorescence intensity

B7: A297V1-Fc (Fc fusion)
chain: B8 chain with L97A
EC50 [7]: 1.11 nM
Emax (MFI) [7]: 7300 MFI
FcγRIIb-mediated activation of HEK-Blue CD40L cells, EC50 [8]: 0.021 nM
FcγRIIb-mediated activation of HEK-Blue CD40L cells, Emax (relative fluorescence intensity) [8]: 18.4 relative fluorescence intensity

B9: A12V2-Fc (Fc fusion)
chain: B5 chain with V4L, S75A, T78S, V93L
EC50 [7]: 0.42 nM
Emax (MFI) [7]: 16600 MFI
FcγRIIb-mediated activation of HEK-Blue CD40L cells, EC50 [8]: 0.002 nM
FcγRIIb-mediated activation of HEK-Blue CD40L cells, Emax (relative fluorescence intensity) [8]: 18.6 relative fluorescence intensity
